Reference: PMC5503752 (Biophysical chemistry, 2017)
Where two headings read alike, the source gives them in different places.

Columns and labels:
Assay in all cases: other fluorescence titration
[1] = biological target: T1, Full-length, wild-type calmodulin (paramecium sequence) (paramecium, UniProt P07463 1-149)
[2] = biological target: T2, N-domain fragment of calmodulin (CaMN, residues 1-75) (paramecium, UniProt P07463 2-76)
[3] = biological target: T3, C-domain fragment of calmodulin (CaMC, residues 76-148) (paramecium, UniProt P07463 77-149)
[4] = biological target: T1, Full-length, wild-type calmodulin …; remark: listed apart in the source
[5] = biological target: T2, N-domain fragment of calmodulin (CaMN, …); remark: listed apart in the source
[6] = biological target: T3, C-domain fragment of calmodulin (CaMC, …); remark: listed apart in the source

B1: NaV1.2 IQ biosensor (rat NaV1.2 residues 1901-1927 flanked by YFP and CFP) (domain or fragment)
chain: KRKQEEVSAIVIQRAYRRYLLKQKVKK
Binder B1 has a Kd [1] of 85 nM, a Kd [2] greater than 100000 nM and a Kd [3] of 386 nM. For the same binder, the Kd [4] was 3.2 nM, the Kd [5] was greater than 100000 nM and the Kd [6] was 11.6 nM.
